Measured values: patent publication US20220146528A1 (NORDIC BIOSCIENCE A S, published 2022)
No end group written: not given here.

T1: elongation of the selection peptide AGIATKGLNGP (human)
T1 construct: Synthetic peptide: the selection peptide with one alanine added at the N-terminus; also called elongated peptide; N-extended elongated version
T1 peptide: AGIATKGLNGP

T2: truncation of the selection peptide IATKGLNGP (human)
T2 construct: Synthetic peptide: the selection peptide without its N-terminal glycine; also called truncated peptide; N-truncated shortened version
T2 peptide: IATKGLNGP

T3: biotinylated synthetic peptide GIATKGLNGP-k(Biotin) (human, not fully specified (C-terminus); also: lowercase k not explained)
T3 construct: Captured on streptavidin-coated microplates; also called biotinylated peptide; coater peptide
T3 peptide: H-GIATKGLNGP

B1: selection peptide GIATKGLNGP (peptide)
peptide: H-GIATKGLNGP
B2: monoclonal antibody NB117-2F4 (antibody, mouse IgG2b, kappa, V domains shown)
VH: EVQLQESGPSLVKPSQTLSLTCSVTGDSITSGFWSWIRKFPGNKLEFMGYIKYSGDTYFNPSLKSRISITRDTSKNQYYLQLNSVTPEDTATYYCSDMDYWGQGTSVTVSS
VL: DVVMTQTPRSLPVSLGDQASISCRSSQSLVHNNGNTYLHWYLQMPGQSPKLLIYKVSNRFSGVPDRFSGSGSGTDFTLKISRVEAEDLGVYFCSQITHVPWTFGGGTKLEIKR
notes: also called mAb

What was measured:
[1] = target: B2; assay: competitive ELISA (Col10neo): peptide standard competes with the coated …-k(Biotin) for 2F4
Description: A purified monoclonal antibody was first tested for peptide-binding specificity by three synthetic peptides, selection peptide ([…]; SEQ ID NO: 1), elongation of the selection peptide ([…]; SEQ ID NO: 3) and truncation of the selection peptide ([…]; SEQ ID NO: 4), and then used in a competitive immunoassay. After optimization with buffer, temperature, incubation time and concentrations for key reagents, the final protocol for detection of ⁴⁷⁹GIATKG (SEQ ID NO: 2) assay was developed as follows: a 96-well streptavidin pre-coated micro plate was coated with 1 ng/ml biotinylated peptide, […]-k(Biotin) (SEQ ID NO: 5) dissolved in 50 mM PBS-BTB buffer (phosphate-buffered saline with bovine serum albumin and Tween-20, pH7.4) for 30 min at 20° C. Then, the plate was washed 5 times by standard wash buffer (20 mM Tris, 50 mM NaCl, pH 7.2). […] The colorimetric reaction was stopped by adding 100 μL stopping solution (1% H₂SO₄) and measured at 450 nm with 650 nm as the reference.
The inter- and intra-plate variation were determined by 10 independent runs of quality control panel (three human sera and two peptide standard) in duplicate. The lower limit of detection (LLOD) was calculated as 3SD of the mean value of 21 zero standard. […] Percent recovery was calculated as the measured concentration divided by the expected concentration corrected for dilution.

[2] = target: B1; assay: competitive ELISA, displacement of 2F4 from the coated biotinylated peptide
Description: (§1) A purified monoclonal antibody was first tested for peptide-binding specificity by three synthetic peptides, selection peptide ([…]; SEQ ID NO: 1), elongation of the selection peptide ([…]; SEQ ID NO: 3) and truncation of the selection peptide ([…]; SEQ ID NO: 4), and then used in a competitive immunoassay. After optimization with buffer, temperature, incubation time and concentrations for key reagents, the final protocol for detection of ⁴⁷⁹GIATKG (SEQ ID NO: 2) assay was developed as follows: a 96-well streptavidin pre-coated micro plate was coated with 1 ng/ml biotinylated peptide, […]-k(Biotin) (SEQ ID NO: 5) dissolved in 50 mM PBS-BTB buffer (phosphate-buffered saline with bovine serum albumin and Tween-20, pH7.4) for 30 min at 20° C. Then, the plate was washed 5 times by standard wash buffer (20 mM Tris, 50 mM NaCl, pH 7.2). 20 μL of the peptide standards, kit controls or samples were added to appropriate wells, followed by 100 μL of 23 ng/ml monoclonal antibody in 50 mM PBS-BTB buffer containing 5% Osteocalcin EIA Puf-Liq (Roche diagnostics, Germany), and incubated overnight (20±1 hr) at 4° C. After 5 times wash, 100 μL of goat anti-mouse secondary antibody (115-035-003, Jackson ImmunoResearch) was added and incubated for 1 hr at 20° C. After this step, the plate was washed for 5 times with wash buffer. Finally, 100 μL 3,3′,5,5′-tetramethylbenzidine (TMB) was added to each well and incubated for 15 min at 20° C. in the dark. The colorimetric reaction was stopped by adding 100 μL stopping solution (1% H₂SO₄) and measured at 450 nm with 650 nm as the reference.

[3] = target: T1, elongation of the selection peptide …; assay: as above
Description: as §1

[4] = target: T2, truncation of the selection peptide …; assay: as above
Description: as §1

[5] = target: T3, biotinylated synthetic peptide …; assay: competitive ELISA, biotinylated peptide on streptavidin plate (FIG. 1 legend)
Description: as §1, with “After this step, the plate was washed for 5 times with wash buffer. Finally, 100 μL 3,3′,5,5′-tetramethylbenzidine (TMB) was added to each well and incubated for 15 min at 20° C. in the dark.” left out

IC50 [1] [µg/mL]	binding result [2]	binding result [3]	binding result [4]	binding result [5]	Binder
0.0419					B1
	binds	no binding (tested: 1000 ng/mL)	no binding (tested: 1000 ng/mL)	binds	B2
